Assay results published in the supplement of paper PMC10126150.
± gives the standard deviation of the averaged measurements.

System: ATP
Test: switch fluorescence ratio, 500 uM ATP over buffer (Cy3 cluster intensity, sum of 5 cycles each) (fold (ratio)); higher = stronger signal-on switching upon ATP binding; sequences stand for … in TCGTCGGCAGCGTCAGATGTGTATAAGAGACAGTTTTTTTTTTTTTTTTTTTTTTTTT…TC
Details: aptamer strand: ATP DNA aptamer (quencher-CACCTGGGGGAGTATTGCGGAGGAAGG + anchor), 100 nM annealed; ATP concentration: 500 uM
Procedure, shortened: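 For every switch-domain sequence, the fluorescence ratio is the mean of per-cluster values, each being summed target-cycle Cy3 intensity over summed buffer-cycle Cy3 intensity. Clusters outside 100-1000 RFU were excluded. On a modified Illumina MiSeq flow-cell, the Cy3-labelled switching-strand clusters were annealed to 100 nM quencher-labelled ATP aptamer, imaged in selection buffer and then after 15 min with 500 uM ATP at 22 °C. Five such cycles were run, with NaOH stripping and re-annealing between them.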
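Also: ATP exposure 15 min at 22 °C before imaging.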

| Sequence | switch fluorescence ratio |
| --- | --- |
| GGATGTTGTG | 0.974 ± 0.04 |
| ACAGGGCCGT | 1.03 ± 0.033 |
| CGTCGGCGCC | 1.09 ± 0.12 |
| CTCGCGAATT | 1.55 ± 0.49 |
| CGGATGTATA | 0.988 ± 0.014 |
| GGGGGTCAGT | 0.991 ± 0.01 |
| CAGGTGACGC | 1.07 ± 0.014 |
| TTTTTATCA | 0.9798 ± 0.0082 |
| GGGGTTCAAT | 0.976 ± 0.044 |
| ATTTAAGGGT | 0.993 ± 0.032 |
| GCCCTGCATG | 1.01 ± 0.052 |
| CTTATAATAG | 1.036 ± 0.006 |
| AGTTTGTTGC | 1 ± 0.012 |
| TGCGTGTCTT | 1.01 ± 0.018 |
| AAATGTGTAG | 0.977 ± 0.024 |
| GGCTGAGGGT | 1 ± 0.016 |
| AAATCGGTGG | 1.01 ± 0.046 |
| TTTACGGGGC | 1 ± 0.017 |
| CGCAAAGGGG | 1.39 ± 0.29 |
| TTCAGCGGGT | 0.983 ± 0.025 |
| GGTTCATTTT | 1.01 ± 0.025 |
| ATTTTCGTTT | 0.945 ± 0.024 |
| TATATACGGG | 1.05 ± 0.032 |
| GGCGACGGAG | 0.97 ± 0.0076 |
| CACATTTTTG | 0.995 ± 0.023 |
| GGGGAACACT | 1.01 ± 0.022 |

| Sequence | switch fluorescence ratio |
| --- | --- |
| TAGTAGTGAG | 0.985 ± 0.013 |
| CGGGGAGCCA | 1.001 ± 0.01 |
| GTGGCCATTA | 0.995 ± 0.02 |
| CGAGCTCTCG | 1.002 ± 0.0075 |
| CATGCTTGGC | 1.01 ± 0.055 |
| ATTAGTGGGT | 0.9826 ± 0.005 |
| TGACTGGACG | 1 ± 0.028 |
| GTAAATTAGT | 1.02 ± 0.04 |
| GAATCCAGTT | 0.989 ± 0.02 |
| TGGGTATTCG | 0.967 ± 0.029 |
| CGAGTGGAGG | 1.03 ± 0.011 |
| TAATCCGCTT | 2.49 ± 0.2 |
| GGTTTTGGGC | 1.02 ± 0.042 |
| TATGCTAGTA | 0.992 ± 0.025 |
| TTTAGCAGCT | 0.993 ± 0.014 |
| CGGAAAAAAT | 1.19 ± 0.19 |
| TTGCGTTGGC | 0.984 ± 0.043 |
| CGGTACGAAT | 1.034 ± 0.0096 |
| AGGCTCACAA | 1.07 ± 0.03 |
| CTGGCGGATT | 0.985 ± 0.05 |
| TAGCCATGTC | 0.924 ± 0.053 |
| ATCGGGGTAT | 0.992 ± 0.042 |
| TCAGGGGGGG | 1.02 ± 0.022 |
| CATGGTCATG | 1 ± 0.017 |
| TTCGAGTCGG | 0.967 ± 0.011 |
| ATTCTGCTGG | 1.01 ± 0.013 |

| Sequence | switch fluorescence ratio |
| --- | --- |
| TCATTTGGAG | 0.9816 ± 0.0076 |
| TCAGACATCG | 1.01 ± 0.035 |
| AAAAAAATTC | 1.05 ± 0.079 |
| TTACCCCCGT | 1.56 ± 0.079 |
| ACAGGGTTTC | 0.985 ± 0.015 |
| AAGTTTTGAC | 1 ± 0.014 |
| GACTAATACG | 1.04 ± 0.024 |
| TCGGAGGGTT | 1.016 ± 0.0052 |
| AAATTGGAAG | 1.05 ± 0.078 |
| AAAACAGGAT | 0.9954 ± 0.0095 |
| AGTCCGGACC | 0.967 ± 0.026 |
| TTTATGATCG | 0.977 ± 0.039 |
| TGGTCGTAGT | 0.994 ± 0.048 |
| TTTATAGCGT | 0.974 ± 0.038 |
| GGAGTTGGGG | 0.99 ± 0.02 |
| CGGGGATGTT | 0.999 ± 0.035 |
| TTGTCGGGCC | 0.964 ± 0.039 |
| TACTCTTCAT | 1.12 ± 0.15 |
| TGGAAAGGAG | 1.02 ± 0.013 |
| TTGCAGGTGT | 1.85 ± 0.47 |
| CAAAAGGAAA | 0.992 ± 0.022 |
| TGAGCCGGGA | 1 ± 0.019 |
| AAGCGTGGGG | 1.02 ± 0.025 |
| TTTTTAGCCG | 1.04 ± 0.075 |
| ATCGGGTTGG | 0.965 ± 0.018 |
| GGTGAGGGGA | 1.01 ± 0.011 |

| Sequence | switch fluorescence ratio |
| --- | --- |
| GCTATGAG | 0.995 ± 0.037 |
| TAATAGGCAG | 1.01 ± 0.029 |
| TCGGGGGCCT | 0.959 ± 0.022 |
| GATAGTGTAG | 1.03 ± 0.0034 |
| CGCTCTGCGT | 1.01 ± 0.033 |
| TTTTTAGTGC | 1 ± 0.044 |
| CAGTGCCAGC | 0.999 ± 0.035 |
| AAATTGCGGG | 0.994 ± 0.048 |
| ACATGTTATA | 1 ± 0.049 |
| ACTGATTTTT | 1.015 ± 0.0036 |
| ATTGGGCGCG | 0.995 ± 0.018 |
| TATGGTTTAA | 0.975 ± 0.042 |
| GTAATAATGG | 0.988 ± 0.053 |
| AGACCTTGGT | 0.963 ± 0.03 |
| CCGCTGGGGG | 1.177 ± 0.0036 |
| AGAAAGGAGT | 0.9982 ± 0.0032 |
| GGTTTCGCTT | 1.03 ± 0.046 |
| ACACCATTAA | 1.02 ± 0.03 |
| TTTTCCGCGG | 1.062 ± 0.0077 |
| CAGGACTGTT | 1.02 ± 0.011 |
| CGGGGGGACA | 0.968 ± 0.041 |
| GATATTTAAG | 0.988 ± 0.042 |
| CGAAAGGAA | 1.01 ± 0.011 |
| TTGTAGGTTT | 1.58 ± 0.79 |
| ATCTTTTTGG | 0.996 ± 0.024 |
| CGGGGAAGTC | 1.02 ± 0.044 |

| Sequence | switch fluorescence ratio |
| --- | --- |
| CCCGGGGGGT | 1.56 ± 1 |
| TTTTTTCAGG | 1.03 ± 0.027 |
| ACAAGTATCA | 0.9853 ± 0.0074 |
| GTTGGAAACA | 0.945 ± 0.01 |
| GACCATGTTT | 0.9932 ± 0.0082 |
| ATGGTCATGT | 0.9943 ± 0.0072 |
| GGGGGGAGGC | 0.995 ± 0.028 |
| ATGGTTTAGG | 0.988 ± 0.038 |
| ACTTTTCTCG | 1.01 ± 0.011 |
| ATCGCGTACT | 1.19 ± 0.04 |
| TTGGGTGCCT | 0.999 ± 0.028 |
| TTTATTCTTT | 1 ± 0.021 |
| TCGTCGTGTG | 1 ± 0.028 |
| GGGTAGTCAG | 0.995 ± 0.017 |
| TTTTCCTGGG | 1.03 ± 0.063 |
| CTCGGTTTTT | 0.989 ± 0.035 |
| AAAATACGGG | 1.21 ± 0.21 |
| TAACAATTCC | 1.26 ± 0.013 |
| TGTGAGTGTG | 0.983 ± 0.015 |
| GGGGGCGATT | 0.987 ± 0.017 |
| TTCCATGTTT | 1.06 ± 0.11 |
| TGAGCTAATG | 1.04 ± 0.043 |
| TTTTGTAAGA | 1.03 ± 0.013 |
| CTTGTAGGGA | 0.9956 ± 0.0053 |
| CATACTTTGG | 1.01 ± 0.016 |
| AGCTGACGCT | 1.02 ± 0.025 |

| Sequence | switch fluorescence ratio |
| --- | --- |
| TACTCAGAGG | 1.04 ± 0.021 |
| TGGAAAAGTT | 0.993 ± 0.017 |
| GGGGAATGCT | 1.01 ± 0.02 |
| AGGATAACCC | 1.018 ± 0.0064 |
| GTTATATTGT | 0.9943 ± 0.0096 |
| GCGTTTGGGC | 0.99 ± 0.057 |
| ATGGGCACGG | 0.99 ± 0.025 |
| ATTTCACGGC | 1.05 ± 0.024 |
| TCCATGTGTT | 1.01 ± 0.037 |
| TTGCAGTGTT | 1.06 ± 0.098 |
| TGATTGTGGC | 0.9557 ± 0.0095 |
| TCGCCCGCGA | 1.51 ± 0.063 |
| TATTTTACTA | 1.01 ± 0.032 |
| TGGGGTGGCG | 1.01 ± 0.067 |
| AGGGTGTTTG | 1.01 ± 0.019 |
| AGTAAGCCAC | 1.05 ± 0.082 |
| AGGTTAGATG | 0.991 ± 0.013 |
| TATAAAAACT | 1.01 ± 0.021 |
| TAAGCGTTGT | 0.98 ± 0.054 |
| TTATTTAAAA | 1 ± 0.02 |
| TTTAACATAT | 1.022 ± 0.004 |
| AAAAGGTGCC | 1.13 ± 0.024 |
| GGGTGTAGTG | 0.988 ± 0.024 |
